Experimental data: IntAct's records for PubMed 19838187

Legend:
tnr6c_human TNRC6C = tnr6c_human TNRC6C (UniProt Q9HCJ0)
tnr6b_mouse Tnrc6b = tnr6b_mouse Tnrc6b (UniProt Q8BKI2)
tnr6b_human TNRC6B = tnr6b_human TNRC6B (UniProt Q9UPQ9)

Sequence of Protein argonaute-2 (Homo sapiens), Q9UKV8 F470V;F505V (Q9UKV8 whole entry F470V/F505V): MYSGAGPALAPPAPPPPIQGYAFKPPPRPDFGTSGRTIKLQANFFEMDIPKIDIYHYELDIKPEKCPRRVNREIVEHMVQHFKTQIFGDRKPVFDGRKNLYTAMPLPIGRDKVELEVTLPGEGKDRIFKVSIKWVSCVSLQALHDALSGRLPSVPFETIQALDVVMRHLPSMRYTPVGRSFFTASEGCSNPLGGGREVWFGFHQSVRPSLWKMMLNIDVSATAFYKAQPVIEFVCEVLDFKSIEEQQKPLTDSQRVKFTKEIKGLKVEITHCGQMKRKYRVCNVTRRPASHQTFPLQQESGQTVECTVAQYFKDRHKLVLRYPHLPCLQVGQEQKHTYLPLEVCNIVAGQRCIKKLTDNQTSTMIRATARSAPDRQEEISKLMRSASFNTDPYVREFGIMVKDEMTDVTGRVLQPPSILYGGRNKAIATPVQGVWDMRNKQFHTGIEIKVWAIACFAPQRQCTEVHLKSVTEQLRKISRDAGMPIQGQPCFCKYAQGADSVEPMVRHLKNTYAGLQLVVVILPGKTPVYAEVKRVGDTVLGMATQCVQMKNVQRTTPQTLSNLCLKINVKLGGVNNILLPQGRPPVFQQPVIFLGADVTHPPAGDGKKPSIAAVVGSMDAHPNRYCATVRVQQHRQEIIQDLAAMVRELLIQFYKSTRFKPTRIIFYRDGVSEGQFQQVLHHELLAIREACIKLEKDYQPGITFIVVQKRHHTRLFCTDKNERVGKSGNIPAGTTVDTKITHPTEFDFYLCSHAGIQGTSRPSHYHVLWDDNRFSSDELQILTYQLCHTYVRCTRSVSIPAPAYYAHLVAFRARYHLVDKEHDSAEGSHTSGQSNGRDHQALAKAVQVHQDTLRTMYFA
Sequence of tnr6b_mouse Tnrc6b (Q8BKI2 whole entry): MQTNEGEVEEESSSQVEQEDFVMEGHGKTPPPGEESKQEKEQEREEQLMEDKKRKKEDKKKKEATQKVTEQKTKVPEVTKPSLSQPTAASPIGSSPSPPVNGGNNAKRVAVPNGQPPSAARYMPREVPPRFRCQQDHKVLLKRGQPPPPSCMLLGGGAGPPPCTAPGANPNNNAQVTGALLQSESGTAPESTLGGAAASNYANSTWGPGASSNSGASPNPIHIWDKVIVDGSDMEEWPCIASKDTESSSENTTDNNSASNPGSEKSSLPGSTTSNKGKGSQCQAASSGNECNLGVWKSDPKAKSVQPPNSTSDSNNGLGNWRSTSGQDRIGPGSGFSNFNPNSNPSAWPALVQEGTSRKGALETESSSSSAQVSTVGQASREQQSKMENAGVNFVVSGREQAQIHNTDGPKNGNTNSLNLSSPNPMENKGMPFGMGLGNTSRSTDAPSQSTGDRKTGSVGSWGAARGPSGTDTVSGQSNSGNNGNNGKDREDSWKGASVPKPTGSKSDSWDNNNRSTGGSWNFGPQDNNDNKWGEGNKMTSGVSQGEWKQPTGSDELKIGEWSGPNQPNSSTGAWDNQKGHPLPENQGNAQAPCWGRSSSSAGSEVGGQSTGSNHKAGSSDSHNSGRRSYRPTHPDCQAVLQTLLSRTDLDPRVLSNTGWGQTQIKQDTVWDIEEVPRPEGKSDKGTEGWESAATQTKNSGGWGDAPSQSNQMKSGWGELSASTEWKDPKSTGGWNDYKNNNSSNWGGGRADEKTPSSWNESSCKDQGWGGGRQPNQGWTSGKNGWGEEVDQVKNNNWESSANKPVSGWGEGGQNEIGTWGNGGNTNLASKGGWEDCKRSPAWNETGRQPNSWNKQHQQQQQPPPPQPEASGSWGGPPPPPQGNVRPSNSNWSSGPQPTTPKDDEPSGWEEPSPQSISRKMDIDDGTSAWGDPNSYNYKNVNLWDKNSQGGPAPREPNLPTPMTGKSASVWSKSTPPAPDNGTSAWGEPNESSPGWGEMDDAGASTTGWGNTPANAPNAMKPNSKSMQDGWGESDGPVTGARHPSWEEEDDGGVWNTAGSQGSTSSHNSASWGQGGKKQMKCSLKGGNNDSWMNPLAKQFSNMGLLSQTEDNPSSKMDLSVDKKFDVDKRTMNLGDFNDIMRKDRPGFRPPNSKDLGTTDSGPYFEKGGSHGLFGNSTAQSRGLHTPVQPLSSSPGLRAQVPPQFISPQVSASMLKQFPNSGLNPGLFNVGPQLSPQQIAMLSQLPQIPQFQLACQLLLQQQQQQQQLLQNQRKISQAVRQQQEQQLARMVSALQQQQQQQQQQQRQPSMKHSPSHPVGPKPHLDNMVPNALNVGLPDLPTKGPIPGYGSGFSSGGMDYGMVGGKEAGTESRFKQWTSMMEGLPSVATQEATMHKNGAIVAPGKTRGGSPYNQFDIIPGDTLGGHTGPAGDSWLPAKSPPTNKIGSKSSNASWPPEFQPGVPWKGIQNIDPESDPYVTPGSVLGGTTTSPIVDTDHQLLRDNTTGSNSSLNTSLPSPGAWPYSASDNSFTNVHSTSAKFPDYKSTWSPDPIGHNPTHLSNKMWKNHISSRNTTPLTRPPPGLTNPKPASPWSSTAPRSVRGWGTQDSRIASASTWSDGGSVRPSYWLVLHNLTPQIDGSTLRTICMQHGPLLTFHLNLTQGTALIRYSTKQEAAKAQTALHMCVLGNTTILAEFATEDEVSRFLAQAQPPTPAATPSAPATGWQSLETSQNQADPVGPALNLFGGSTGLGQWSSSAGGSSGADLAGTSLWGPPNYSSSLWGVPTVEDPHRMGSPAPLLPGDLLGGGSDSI
Sequence of tnr6c_human TNRC6C (Q9HCJ0 whole entry): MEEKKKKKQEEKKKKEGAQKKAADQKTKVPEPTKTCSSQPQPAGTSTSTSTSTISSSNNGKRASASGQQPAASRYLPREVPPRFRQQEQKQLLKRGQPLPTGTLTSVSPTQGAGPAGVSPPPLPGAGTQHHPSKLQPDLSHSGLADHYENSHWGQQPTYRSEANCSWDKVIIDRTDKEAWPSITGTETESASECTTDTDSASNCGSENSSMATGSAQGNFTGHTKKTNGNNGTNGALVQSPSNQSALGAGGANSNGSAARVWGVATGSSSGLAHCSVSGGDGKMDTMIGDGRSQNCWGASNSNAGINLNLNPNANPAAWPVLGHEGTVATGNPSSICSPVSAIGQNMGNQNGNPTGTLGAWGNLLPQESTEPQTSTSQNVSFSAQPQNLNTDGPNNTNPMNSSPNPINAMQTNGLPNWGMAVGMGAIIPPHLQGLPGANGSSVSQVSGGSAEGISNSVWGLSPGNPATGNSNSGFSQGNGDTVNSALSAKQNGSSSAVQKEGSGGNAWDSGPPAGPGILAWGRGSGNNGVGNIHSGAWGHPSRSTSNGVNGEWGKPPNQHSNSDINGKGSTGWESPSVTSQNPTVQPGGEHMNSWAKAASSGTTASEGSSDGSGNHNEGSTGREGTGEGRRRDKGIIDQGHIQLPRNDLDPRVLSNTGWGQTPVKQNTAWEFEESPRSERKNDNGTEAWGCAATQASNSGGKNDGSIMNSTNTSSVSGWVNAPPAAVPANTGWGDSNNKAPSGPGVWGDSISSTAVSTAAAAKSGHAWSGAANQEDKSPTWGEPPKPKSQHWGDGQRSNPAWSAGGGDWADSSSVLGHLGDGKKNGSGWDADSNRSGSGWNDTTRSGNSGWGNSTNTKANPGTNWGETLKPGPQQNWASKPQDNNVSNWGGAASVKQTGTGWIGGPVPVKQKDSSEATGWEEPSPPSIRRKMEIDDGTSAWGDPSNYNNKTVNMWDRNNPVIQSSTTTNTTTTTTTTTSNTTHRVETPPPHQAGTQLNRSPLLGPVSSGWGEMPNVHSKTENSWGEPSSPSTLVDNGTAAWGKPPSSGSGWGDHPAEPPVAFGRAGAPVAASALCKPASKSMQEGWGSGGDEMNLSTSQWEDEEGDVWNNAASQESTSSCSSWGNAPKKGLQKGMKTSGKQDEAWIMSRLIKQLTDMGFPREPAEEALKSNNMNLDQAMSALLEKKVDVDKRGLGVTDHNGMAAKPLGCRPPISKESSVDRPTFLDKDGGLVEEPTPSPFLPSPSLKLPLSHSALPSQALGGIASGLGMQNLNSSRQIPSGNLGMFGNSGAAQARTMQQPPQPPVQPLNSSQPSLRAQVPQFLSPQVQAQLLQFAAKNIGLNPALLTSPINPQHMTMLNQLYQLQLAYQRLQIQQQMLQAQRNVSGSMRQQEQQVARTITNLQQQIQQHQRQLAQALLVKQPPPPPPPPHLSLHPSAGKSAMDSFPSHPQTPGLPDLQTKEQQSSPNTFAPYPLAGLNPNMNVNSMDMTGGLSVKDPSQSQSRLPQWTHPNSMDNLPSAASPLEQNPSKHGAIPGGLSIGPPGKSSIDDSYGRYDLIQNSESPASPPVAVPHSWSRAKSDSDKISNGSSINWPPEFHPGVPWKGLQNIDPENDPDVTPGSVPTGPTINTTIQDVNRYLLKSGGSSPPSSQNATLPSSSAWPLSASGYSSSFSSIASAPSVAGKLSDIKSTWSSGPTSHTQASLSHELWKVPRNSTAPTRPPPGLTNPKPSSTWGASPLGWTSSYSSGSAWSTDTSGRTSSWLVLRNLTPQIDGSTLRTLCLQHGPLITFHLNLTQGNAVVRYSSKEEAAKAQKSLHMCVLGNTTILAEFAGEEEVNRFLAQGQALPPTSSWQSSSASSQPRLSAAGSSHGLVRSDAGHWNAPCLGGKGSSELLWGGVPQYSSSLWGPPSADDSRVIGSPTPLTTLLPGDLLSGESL

- effect of a mutation on the interaction (tnr6c_human TNRC6C): disrupting interaction
- effect of a mutation on the interaction (tnr6b_mouse Tnrc6b): disrupting interaction
- effect of a mutation on the interaction (tnr6b_human TNRC6B): disrupting interaction
Substance: Protein argonaute-2 (Homo sapiens), Q9UKV8 F470V;F505V
